Blank lines part the entries; values can stand above or below the molecule they belong to.
Legend:
PANC1 cells = assay: Immunoblot of rCHI3L1-induced AKT and ERK phosphorylation, PANC1; format: cell-based, human; details: PANC1, rCHI3L1 100 ng/ml, 20 minutes, different dose of mAbs
Protocol: The involvement of CHI3L1 in intracellular signaling pathways has been reported. For example, CHI3L1 binding to CD44 activates protein kinase B (AKT) and extracellular signal-regulated kinase (ERK) signaling to promote cancer progression (Chen, Jiang et al. 2021). Thus, we tested whether mAb clones R4-4, R4-54, 293R3-2, and 293R3-4 could attenuate AKT and ERK phosphorylation in human pancreatic (PANC1), colorectal (HCT116), and lung (A549) cancer cell lines. PANC1 cells were treated with rCHI3L1 (100 ng/ml) only or rCHI3L1 with different dose of mAbs as indicated for 20 minutes.

[1] = biological target: T1, CHI3L1 binding to IL-13Rα2 on A549 cell line (Homo sapiens, UniProt P36222); assay: Functional screen: block of CHI3L1 binding to IL-13Rα2 on A549 cell line; format: cell-based; details: A549 cells, compared with CHI3L1 only
T1 construct: host or cells: A549 cells carry the receptor
From the text: CHI3L1 is known to associate with different receptors, such as IL-13Rα2 (He et al. 2013), CRTH2 (Zhou et al. 2015), TMEM219 (Lee et al. 2016), and galectin-3 (Zhou et al. 2015). […] Therefore, purified antibody leads were functionally screened for their ability to block CHI3L1 binding to IL-13Rα2 on A549 cell line (FIG. 3A). […] The sequences and defied CDR regions among those monoclonal antibodies are listed and summarized in the sequences list (SEQ ID NOs: 1 to 88) and Table 2, respectively. Anti-CHI3L1 clone R4-2 heavy chain (SEQ ID NO: 1), anti-CHI3L1 clone R4-2 light chain (SEQ ID NO: 2), anti-CHI3L1 clone R4-4 heavy chain (SEQ ID NO: 9), anti-CHI3L1 clone R4-4 light chain (SEQ ID NO: 10), anti-CHI3L1 clone R4-39 heavy chain (SEQ ID NO: 17), anti-CHI3L1 clone R4-39 light chain (SEQ ID NO: 18), anti-CHI3L1 clone R4-53 heavy chain (SEQ ID NO: 25), anti-CHI3L1 clone R4-53 light chain (SEQ ID NO: 26), anti-CHI3L1 clone R4-54 heavy chain (SEQ ID NO: 33), anti-CHI3L1 clone R4-54 light chain (SEQ ID NO: 34), anti-CHI3L1 clone R4-62 heavy chain (SEQ ID NO: 41), anti-CHI3L1 clone R4-62 light chain (SEQ ID NO: 42), anti-CHI3L1 clone R4-63 heavy chain (SEQ ID NO: 49), anti-CHI3L1 clone R4-63 light chain (SEQ ID NO: 50), anti-CHI3L1 clone R4-93 heavy chain (SEQ ID NO: 57), anti-CHI3L1 clone R4-93 light chain (SEQ ID NO: 58), anti-CHI3L1 clone 293R3-2 heavy chain (SEQ ID NO: 65), anti-CHI3L1 clone 293R3-2 light chain (SEQ ID NO: 66), anti-CHI3L1 clone 293R3-4 heavy chain (SEQ ID NO: 73), anti-CHI3L1 clone 293R3-4 light chain (SEQ ID NO: 74), anti-CHI3L1 clone 293R3-5 heavy chain (SEQ ID NO: 81), and anti-CHI3L1 clone 293R3-5 light chain (SEQ ID NO: 82) are shown in sequence listing.

[2] = biological target: human chitotriosidase-1 (CHIT1) (Homo sapiens, UniProt Q13231); assay: ELISA binding specificity, CHIT1; details: mAbs 1 μg/ml; coated protein 2.5 μg/ml to 0 μg/ml
Protocol: Four selected clones of mAbs including R4-4, R4-54, 293R3-2, and 293R3-4 were further tested for blocking effect on human colorectal (HCT116, SW480, and SW620) and pancreatic cancer cell lines (PANC1 and MiaPaCa-2). […] P values were determined by one-way ANOVA. * P<0.05, ** P<0.01, *** P<0.001, **** P<0.0001. For binding specificity examination, we further coated different concentration of recombinant CHI3L1 protein, and two other major proteins in chitinase family including human chitotriosidase-1 (CHIT1) and CHI3L2 from 2.5 μg/ml to 0 μg/ml, on 96-well plate.

hCHI3L1/flag-His [3] = biological target: T2, hCHI3L1/flag-His (Homo sapiens, UniProt P36222); assay: In tandem epitope binning on Octet Red96; format: binding; details: for epitope cluster: among four anti-CHI3L1 mAbs; for competitive binding class, CHI3L1 293R3-2: paired with CHI3L1 293R3-2; for Epitope Binning Heat Map value, CHI3L1 293R3-2: paired with CHI3L1 293R3-2, 100 nM each; for competitive binding class, CHI3L1 293R3-4: paired with CHI3L1 293R3-4; for Epitope Binning Heat Map value, CHI3L1 293R3-4: paired with CHI3L1 293R3-4, 100 nM each; for competitive binding class, CHI3L1 R4-4: paired with CHI3L1 R4-4; for Epitope Binning Heat Map value, CHI3L1 R4-4: paired with CHI3L1 R4-4, 100 nM each; for competitive binding class, CHI3L1 R4-54: paired with CHI3L1 R4-54; for Epitope Binning Heat Map value, CHI3L1 R4-54: paired with CHI3L1 R4-54, 100 nM each
T2 construct: human CHI3L1 extracellular domain fused with flag and His tag
Protocol: In order to know the epitopic coverage for those four antibodies to increase the success of therapeutic CHI3L1 antibody development, epitope binning is used to characterize the binding site of mAbs to the corresponding antigen and summarized in the Table 4. In epitope binning, mAbs specific to the same target protein are tested pairwise against all mAbs in a set to assess whether they block one another's binding to a specific site of the antigen or not. The mAbs that block binding to the same epitope are “binned” together. mAbs within the same bin often function similarly, so epitope bins can narrow down the choices to fewer candidates for investigators to choose from. The in tandem epitope binning assay conducted on Octet Red96 comprised a five-step binding cycle; 1) a buffer baseline was established for 30 sec, 2) 100 nM hCHI3L1/flag-His was captured for 5 min, 3) 100 nM mAb array was loaded to saturate the captured antigen for 10 min, 4) 100 nM of the test mAb was bound for 5 min, and 5) the capture surfaces were regenerated for 30 sec. Anti-His surfaces were regenerated with 10 mM glycine pH 1.7. Raw data was processed using ForteBio's Data Analysis HT Software 11.1 and the antibody pairs were assessed for competitive binding. Additional binding by the second antibody indicates an unoccupied epitope (non-competitor, marked as *c in Table 4), while no binding indicates epitope blocking (competitor, marked as *b in Table 4) and self-competing antibodies were marked as *a in Table 4. Among four anti-CHI3L1 mAbs, there are two epitope clusters.

hCHI3L1/flag-His [4] = biological target: T2, hCHI3L1/flag-His; assay: ForteBio biolayer interferometry binding analysis; details: for koff / kon: mAb loaded on AHC sensor, analyte hCHI3L1
Protocol: Anti-CHI3L1 mAbs were loaded at 5 μg/mL on AHC (Anti-Human IgG Fc Capture, ForteBio, Cat #18-5060) for signal reach to approximate 0.5 nm. Sensors then were exposed to human CHI3L1 extracellular domain fused with flag and His tag recombinant protein, hCHI3L1/flag-His, solutions at 10 nM with 2 time serial dilution for 7 concentrations. Measurement were performed as follows: 1 min baseline in kinetic buffer, 5 minute association in 7 different concentrations hCHI3L1/flag-His and 5 minute dissociation into kinetic buffer. The kinetic parameters were calculated and produced by Octet Data Acquisition and Analysis Software.

human chitotriosidase-1 (CHIT1), sequence (Q13231 22-466): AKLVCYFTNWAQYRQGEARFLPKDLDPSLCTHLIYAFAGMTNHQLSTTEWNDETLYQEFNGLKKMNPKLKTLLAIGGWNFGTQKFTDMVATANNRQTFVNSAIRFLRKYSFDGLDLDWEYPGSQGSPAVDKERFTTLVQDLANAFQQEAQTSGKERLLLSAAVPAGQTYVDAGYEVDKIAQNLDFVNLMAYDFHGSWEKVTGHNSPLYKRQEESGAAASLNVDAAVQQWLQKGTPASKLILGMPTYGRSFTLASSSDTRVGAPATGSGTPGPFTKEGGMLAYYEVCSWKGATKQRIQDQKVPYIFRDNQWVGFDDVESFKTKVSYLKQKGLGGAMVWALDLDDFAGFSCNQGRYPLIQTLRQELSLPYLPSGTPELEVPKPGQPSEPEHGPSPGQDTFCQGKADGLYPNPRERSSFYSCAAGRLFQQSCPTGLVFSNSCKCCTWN
T2 sequence (P36222 22-383): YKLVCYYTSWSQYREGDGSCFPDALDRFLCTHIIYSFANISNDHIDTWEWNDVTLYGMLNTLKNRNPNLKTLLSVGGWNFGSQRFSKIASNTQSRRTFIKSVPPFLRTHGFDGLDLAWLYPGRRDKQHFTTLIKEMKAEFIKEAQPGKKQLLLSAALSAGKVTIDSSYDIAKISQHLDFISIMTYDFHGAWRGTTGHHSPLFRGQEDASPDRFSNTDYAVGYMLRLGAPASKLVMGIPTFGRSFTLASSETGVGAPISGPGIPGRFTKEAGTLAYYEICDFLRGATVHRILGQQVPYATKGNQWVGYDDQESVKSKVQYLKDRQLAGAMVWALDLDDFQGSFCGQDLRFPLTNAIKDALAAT
T1 sequence (P36222 22-383): as above

CHI3L1 neutralizing activity [1]: best neutralizing activity | binding specificity: recognition of CHIT1 [2]: no other chitinase proteins | epitope cluster (hCHI3L1/flag-His [3]): unidirectional blocking results | competitive binding class, CHI3L1 293R3-2 (hCHI3L1/flag-His [3]): *^a | Epitope Binning Heat Map value, CHI3L1 293R3-2 (hCHI3L1/flag-His [3]): 0.2110 | competitive binding class, CHI3L1 293R3-4 (hCHI3L1/flag-His [3]): *^c | Epitope Binning Heat Map value, CHI3L1 293R3-4 (hCHI3L1/flag-His [3]): 0.6303 | competitive binding class, CHI3L1 R4-4 (hCHI3L1/flag-His [3]): *^c | Epitope Binning Heat Map value, CHI3L1 R4-4 (hCHI3L1/flag-His [3]): 0.7478 | competitive binding class, CHI3L1 R4-54 (hCHI3L1/flag-His [3]): *^c | Epitope Binning Heat Map value, CHI3L1 R4-54 (hCHI3L1/flag-His [3]): 0.7349 | koff (hCHI3L1/flag-His [4]): 0.00302 s⁻¹ | kon (hCHI3L1/flag-His [4]): 1.08e+06 M⁻¹ s⁻¹
B1: 293R3-2: fully human anti-CHI3L1 IgG1 mAb, Table 1 No. 2; heavy chain SEQ ID NO: 65, light chain SEQ ID NO: 66 (antibody, listed as Homo sapiens)
VH: QVQLQESGPGLVEPSGTLSLTCAVSGGSISSSNWWSWVRQHPGKGLEWIGEIYHSGSTNYNPSLRSRVTISVDKSKNQFSLELSSVTAADTAVYYCAGDQRMEDDAFDIWGQGTMVTVSS
light: QSALTQPASVSGSPGQSITISCTGTSSDVGGYNYVSWYQQHPGKAPKLMIYDVSNRPSGVSNRFSGSKSGNTASLTISGLQAEDEADYYCSSYTSSSTLYVFGTGTKVTVLGQPKANPTVTLFPPSSEELQANKATLVCLISDFYPGAVTVAWKADGSPVKAGVETTKPSKQSNNKYAASSYLSLTPEQWKSHRSYSCQVTHEGSTVEKTVAPTECS
p-AKT and p-ERK levels induced by rCHI3L1 (PANC1 cells): inhibited p-AKT and p-ERK levels induced by rCHI3L1 in a dose dependent manner

CHI3L1 neutralizing activity [1]: best neutralizing activity | binding specificity: recognition of CHIT1 [2]: no other chitinase proteins | epitope cluster (hCHI3L1/flag-His [3]): unidirectional blocking results | competitive binding class, CHI3L1 293R3-2 (hCHI3L1/flag-His [3]): *^b | Epitope Binning Heat Map value, CHI3L1 293R3-2 (hCHI3L1/flag-His [3]): 0.1221 | competitive binding class, CHI3L1 293R3-4 (hCHI3L1/flag-His [3]): *^a | Epitope Binning Heat Map value, CHI3L1 293R3-4 (hCHI3L1/flag-His [3]): 0.3014 | competitive binding class, CHI3L1 R4-4 (hCHI3L1/flag-His [3]): *^c | Epitope Binning Heat Map value, CHI3L1 R4-4 (hCHI3L1/flag-His [3]): 1.1089 | competitive binding class, CHI3L1 R4-54 (hCHI3L1/flag-His [3]): *^c | Epitope Binning Heat Map value, CHI3L1 R4-54 (hCHI3L1/flag-His [3]): 0.4217 | koff (hCHI3L1/flag-His [4]): 0.00722 s⁻¹ | kon (hCHI3L1/flag-His [4]): 1.83e+06 M⁻¹ s⁻¹
B2: 293R3-4: fully human anti-CHI3L1 IgG1 mAb, Table 1 No. 4; heavy chain SEQ ID NO: 73, light chain SEQ ID NO: 74 (antibody, listed as Homo sapiens)
VH: EVQLVQSGAEVKKPGATVKISCKVSGYSFTDYYIHWVQQAPGKGLEWMGFVDPENGETIYAEKFQGRVTITADTSTDTAYMELSSLRSDDTAVYYCATDRDYDDSSGNAFDIWGQGTMVTVSS
light: SYELTQPPSVSVSTGQTATITCSGDILGDEYAFWYQQKAGQSPVLVIYLDTRRPSGIPERFSGSNSGDTATLTISETQPVDEAVYFCQGWDSSTALYVFGTGTKVTVLGQPKANPTVTLFPPSSEELQANKATLVCLISDFYPGAVTVAWKADGSPVKAGVETTKPSKQSNNKYAASSYLSLTPEQWKSHRSYSCQVTHEGSTVEKTVAPTECS
p-AKT and p-ERK levels induced by rCHI3L1 (PANC1 cells): inhibited p-AKT and p-ERK levels induced by rCHI3L1 in a dose dependent manner

binding specificity: recognition of CHIT1 [2]: no other chitinase proteins | epitope cluster (hCHI3L1/flag-His [3]): exclusive epitope | competitive binding class, CHI3L1 293R3-2 (hCHI3L1/flag-His [3]): *^c | Epitope Binning Heat Map value, CHI3L1 293R3-2 (hCHI3L1/flag-His [3]): 0.5680 | competitive binding class, CHI3L1 293R3-4 (hCHI3L1/flag-His [3]): *^c | competitive binding class, CHI3L1 R4-4 (hCHI3L1/flag-His [3]): *^a | Epitope Binning Heat Map value, CHI3L1 R4-4 (hCHI3L1/flag-His [3]): 0.1232 | competitive binding class, CHI3L1 R4-54 (hCHI3L1/flag-His [3]): *^c | Epitope Binning Heat Map value, CHI3L1 R4-54 (hCHI3L1/flag-His [3]): 1.3845 | binding kinetics profile compare to other mAbs (hCHI3L1/flag-His [4]): slower on-rate (kon) and off-rate (koff) | koff (hCHI3L1/flag-His [4]): 0.000353 s⁻¹
B3: R4-4: fully human anti-CHI3L1 IgG1 mAb, Table 1 No. 9; heavy chain SEQ ID NO: 9, light chain SEQ ID NO: 10 (antibody, listed as Homo sapiens)
VH: EVQLLESGGGLLQPGGSLRLSCAASGLTFRNYAMTWVRQAPGKGLEWVSTISGNGDETFYADSVKGHFTISRDNSKDTVYLQMNSLRAEDTAVYYCAKGGHYSFFDSWGQGSPVTVSS
light: NFMLTQPHSVSESPGKTVTISCTRSSGSIASNYVQWYQQRPGSSPTTVIYEDNQRPSGVPDRFSGSIDSSSNSASLTISGLKTEDEADYYCQSYDSSNYVFGTGTKVTVLGQPKANPTVTLFPPSSEELQANKATLVCLISDFYPGAVTVAWKADGSPVKAGVETTKPSKQSNNKYAASSYLSLTPEQWKSHRSYSCQVTHEGSTVEKTVAPAECS
p-AKT and p-ERK levels induced by rCHI3L1 (PANC1 cells): inhibited p-AKT and p-ERK levels induced by rCHI3L1 in a dose dependent manner
